The target in the experiment is recombinant human tumor necrosis factor alpha (Homo sapiens, UniProt P01375). Kind of experiment: cell-based or functional assay.

Several values for one entry are separate records, joined by “and”; a condition that tells them apart may be missing. Equal entries are not always repeated.

Sequence of recombinant human tumor necrosis factor alpha (P01375 77-233): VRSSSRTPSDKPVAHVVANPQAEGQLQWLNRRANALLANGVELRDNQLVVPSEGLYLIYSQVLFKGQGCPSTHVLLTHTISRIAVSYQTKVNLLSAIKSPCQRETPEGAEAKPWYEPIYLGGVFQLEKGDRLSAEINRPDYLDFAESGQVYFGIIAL

B1: Haidalimumab (antibody, V domains shown)
VH: EVQLVESGGGLVQPGGSLRLSCAASGFPFSNHWMNWVRQAPGKGLEWVGEIRSKSMNSATHYAESVKGRFTISRDDSKNSLYLQMNSLKTEDTAVYYCARNYYGSTYDHWGQGTLVTVSS
VL: EIVLTQSPDFQSVTPKEKVTITCRASQFVGYSIHWYQQKPDQSPKLLIKYASESRSGVPSRFSGSGSGTDFTLTINSLEAEDAATYYCQQSHSWHFTFGQGTKLEIK
B1: the “EC50 of neutralisation of the cytotoxicity of rhTNFα (1 ng/mL, with actinomycin D 2.5 μg/mL) on L929 cells, MTT; one of three antibody batches” value is 0.0195 µg/mL and 0.018 µg/mL and 0.0158 µg/mL.

The record behind these values is publication PMC8809985, “Preparation and characterization of a fully human monoclonal antibody specific for human tumor necrosis factor alpha” (Bioengineered, 2021).
